Patent US20150344570A1 (published 2015)

T1: FcγRIIa R (human, UniProt P12318 34-217)
T1 construct: extracellular domain; also called FcgRIIa R type; 2aR
T1 sequence (looked up): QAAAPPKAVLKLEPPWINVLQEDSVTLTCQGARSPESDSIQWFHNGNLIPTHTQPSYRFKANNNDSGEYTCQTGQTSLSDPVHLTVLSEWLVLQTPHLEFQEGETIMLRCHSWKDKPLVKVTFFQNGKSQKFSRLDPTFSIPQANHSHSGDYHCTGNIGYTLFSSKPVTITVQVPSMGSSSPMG


biological target: T1, FcγRIIa R; assay: SPR (Biacore), captured antibody, FcγR as analyte; relative binding activity
Procedure: Analysis of interaction between objective antibody and the FcγR was carried out using Biacore T100 (GE Healthcare). HBS-EP+ (GE Healthcare) was used as the running buffer, and the measurement temperature was set to 25° C. Chips produced by immobilizing the antigen peptide by the amine coupling method to a Series S Sencor Chip CM5 (GE Healthcare), or alternatively, chips produced by allowing preliminarily biotinylated antigen peptides to interact with and immobilize onto a Series S Sensor Chip SA (certified) (GE Healthcare) were used. Antibodies of interest were captured onto an antigen peptide-immobilized chip, and allowed to interact to each FcγR diluted with running buffer. To regenerate and repeatedly use the chip, the antibodies captured on the chip were washed off by reacting 10 mM glycine-HCl, pH 1.5.

Row | Binder | Ho/Con_2aR
1 | GpH7-B3 variant G236_14T/GpL16-k0 (antibody, human IgG1, kappa, also called Ho Ab G236_14T) heavy: not shown light: DIVMTQSPLSLPVTPGEPASISCQASESLVHSNRNTYLHWYLQKPGQSPQLLIYKVSNRFSGVPDRFSGSGSGTDFTLKISRVEAEDVGVYYCSQNTHVPPTFGQGTKVEIERTVAAPSVFIFPPSDEQLKSGTASVVCLLNNFYPREAKVQWKVDNALQSGNSQESVTEQDSKDSTYSLSSTLTLSKADYEKHKVYACEVTHQGLSSPVTKSFNRGEC | 80 % (GpH7-B3/GpL16-k0 = 100)
2 | GpH7-B3 variant H268_12R/GpL16-k0 (antibody, human IgG1, kappa, also called Ho Ab H268_12R) heavy: not shown light: DIVMTQSPLSLPVTPGEPASISCQASESLVHSNRNTYLHWYLQKPGQSPQLLIYKVSNRFSGVPDRFSGSGSGTDFTLKISRVEAEDVGVYYCSQNTHVPPTFGQGTKVEIERTVAAPSVFIFPPSDEQLKSGTASVVCLLNNFYPREAKVQWKVDNALQSGNSQESVTEQDSKDSTYSLSSTLTLSKADYEKHKVYACEVTHQGLSSPVTKSFNRGEC | 98.5 % (GpH7-B3/GpL16-k0 = 100)
3 | GpH7-B3 variant G237_20W/GpL16-k0 (antibody, human IgG1, kappa, also called Ho Ab G237_20W) heavy: not shown light: DIVMTQSPLSLPVTPGEPASISCQASESLVHSNRNTYLHWYLQKPGQSPQLLIYKVSNRFSGVPDRFSGSGSGTDFTLKISRVEAEDVGVYYCSQNTHVPPTFGQGTKVEIERTVAAPSVFIFPPSDEQLKSGTASVVCLLNNFYPREAKVQWKVDNALQSGNSQESVTEQDSKDSTYSLSSTLTLSKADYEKHKVYACEVTHQGLSSPVTKSFNRGEC | 107 % (GpH7-B3/GpL16-k0 = 100)
4 | GpH7-B3 variant H268_20W/GpL16-k0 (antibody, human IgG1, kappa, also called Ho Ab H268_20W) heavy: not shown light: DIVMTQSPLSLPVTPGEPASISCQASESLVHSNRNTYLHWYLQKPGQSPQLLIYKVSNRFSGVPDRFSGSGSGTDFTLKISRVEAEDVGVYYCSQNTHVPPTFGQGTKVEIERTVAAPSVFIFPPSDEQLKSGTASVVCLLNNFYPREAKVQWKVDNALQSGNSQESVTEQDSKDSTYSLSSTLTLSKADYEKHKVYACEVTHQGLSSPVTKSFNRGEC | 110 % (GpH7-B3/GpL16-k0 = 100)
5 | GpH7-B3 variant G237_08L/GpL16-k0 (antibody, human IgG1, kappa, also called Ho Ab G237_08L) heavy: not shown light: DIVMTQSPLSLPVTPGEPASISCQASESLVHSNRNTYLHWYLQKPGQSPQLLIYKVSNRFSGVPDRFSGSGSGTDFTLKISRVEAEDVGVYYCSQNTHVPPTFGQGTKVEIERTVAAPSVFIFPPSDEQLKSGTASVVCLLNNFYPREAKVQWKVDNALQSGNSQESVTEQDSKDSTYSLSSTLTLSKADYEKHKVYACEVTHQGLSSPVTKSFNRGEC | 56.6 % (GpH7-B3/GpL16-k0 = 100)
6 | GpH7-B3 variant H268_05P/GpL16-k0 (antibody, human IgG1, kappa, also called Ho Ab H268_05P) heavy: not shown light: DIVMTQSPLSLPVTPGEPASISCQASESLVHSNRNTYLHWYLQKPGQSPQLLIYKVSNRFSGVPDRFSGSGSGTDFTLKISRVEAEDVGVYYCSQNTHVPPTFGQGTKVEIERTVAAPSVFIFPPSDEQLKSGTASVVCLLNNFYPREAKVQWKVDNALQSGNSQESVTEQDSKDSTYSLSSTLTLSKADYEKHKVYACEVTHQGLSSPVTKSFNRGEC | 95.9 % (GpH7-B3/GpL16-k0 = 100)
7 | GpH7-B3 variant G237_10E/GpL16-k0 (antibody, human IgG1, kappa, also called Ho Ab G237_10E) heavy: not shown light: DIVMTQSPLSLPVTPGEPASISCQASESLVHSNRNTYLHWYLQKPGQSPQLLIYKVSNRFSGVPDRFSGSGSGTDFTLKISRVEAEDVGVYYCSQNTHVPPTFGQGTKVEIERTVAAPSVFIFPPSDEQLKSGTASVVCLLNNFYPREAKVQWKVDNALQSGNSQESVTEQDSKDSTYSLSSTLTLSKADYEKHKVYACEVTHQGLSSPVTKSFNRGEC | 22.5 % (GpH7-B3/GpL16-k0 = 100)
8 | GpH7-B3 variant G237_09D/GpL16-k0 (antibody, human IgG1, kappa, also called Ho Ab G237_09D) heavy: not shown light: DIVMTQSPLSLPVTPGEPASISCQASESLVHSNRNTYLHWYLQKPGQSPQLLIYKVSNRFSGVPDRFSGSGSGTDFTLKISRVEAEDVGVYYCSQNTHVPPTFGQGTKVEIERTVAAPSVFIFPPSDEQLKSGTASVVCLLNNFYPREAKVQWKVDNALQSGNSQESVTEQDSKDSTYSLSSTLTLSKADYEKHKVYACEVTHQGLSSPVTKSFNRGEC | 73.1 % (GpH7-B3/GpL16-k0 = 100)
9 | GpH7-B3 variant G237_19Q/GpL16-k0 (antibody, human IgG1, kappa, also called Ho Ab G237_19Q) heavy: not shown light: DIVMTQSPLSLPVTPGEPASISCQASESLVHSNRNTYLHWYLQKPGQSPQLLIYKVSNRFSGVPDRFSGSGSGTDFTLKISRVEAEDVGVYYCSQNTHVPPTFGQGTKVEIERTVAAPSVFIFPPSDEQLKSGTASVVCLLNNFYPREAKVQWKVDNALQSGNSQESVTEQDSKDSTYSLSSTLTLSKADYEKHKVYACEVTHQGLSSPVTKSFNRGEC | 14.3 % (GpH7-B3/GpL16-k0 = 100)
10 | GpH7-B3 variant H268_03V/GpL16-k0 (antibody, human IgG1, kappa, also called Ho Ab H268_03V) heavy: not shown light: DIVMTQSPLSLPVTPGEPASISCQASESLVHSNRNTYLHWYLQKPGQSPQLLIYKVSNRFSGVPDRFSGSGSGTDFTLKISRVEAEDVGVYYCSQNTHVPPTFGQGTKVEIERTVAAPSVFIFPPSDEQLKSGTASVVCLLNNFYPREAKVQWKVDNALQSGNSQESVTEQDSKDSTYSLSSTLTLSKADYEKHKVYACEVTHQGLSSPVTKSFNRGEC | 105 % (GpH7-B3/GpL16-k0 = 100)
11 | GpH7-B3 variant G237_06M/GpL16-k0 (antibody, human IgG1, kappa, also called Ho Ab G237_06M) heavy: not shown light: DIVMTQSPLSLPVTPGEPASISCQASESLVHSNRNTYLHWYLQKPGQSPQLLIYKVSNRFSGVPDRFSGSGSGTDFTLKISRVEAEDVGVYYCSQNTHVPPTFGQGTKVEIERTVAAPSVFIFPPSDEQLKSGTASVVCLLNNFYPREAKVQWKVDNALQSGNSQESVTEQDSKDSTYSLSSTLTLSKADYEKHKVYACEVTHQGLSSPVTKSFNRGEC | 55.3 % (GpH7-B3/GpL16-k0 = 100)
12 | GpH7-B3 variant H268_11K/GpL16-k0 (antibody, human IgG1, kappa, also called Ho Ab H268_11K) heavy: not shown light: DIVMTQSPLSLPVTPGEPASISCQASESLVHSNRNTYLHWYLQKPGQSPQLLIYKVSNRFSGVPDRFSGSGSGTDFTLKISRVEAEDVGVYYCSQNTHVPPTFGQGTKVEIERTVAAPSVFIFPPSDEQLKSGTASVVCLLNNFYPREAKVQWKVDNALQSGNSQESVTEQDSKDSTYSLSSTLTLSKADYEKHKVYACEVTHQGLSSPVTKSFNRGEC | 93.4 % (GpH7-B3/GpL16-k0 = 100)
13 | GpH7-B3 variant G237_13S/GpL16-k0 (antibody, human IgG1, kappa, also called Ho Ab G237_13S) heavy: not shown light: DIVMTQSPLSLPVTPGEPASISCQASESLVHSNRNTYLHWYLQKPGQSPQLLIYKVSNRFSGVPDRFSGSGSGTDFTLKISRVEAEDVGVYYCSQNTHVPPTFGQGTKVEIERTVAAPSVFIFPPSDEQLKSGTASVVCLLNNFYPREAKVQWKVDNALQSGNSQESVTEQDSKDSTYSLSSTLTLSKADYEKHKVYACEVTHQGLSSPVTKSFNRGEC | 44.4 % (GpH7-B3/GpL16-k0 = 100)
14 | GpH7-B3 variant I332_14T/GpL16-k0 (antibody, human IgG1, kappa, also called Ho Ab I332_14T) heavy: not shown light: DIVMTQSPLSLPVTPGEPASISCQASESLVHSNRNTYLHWYLQKPGQSPQLLIYKVSNRFSGVPDRFSGSGSGTDFTLKISRVEAEDVGVYYCSQNTHVPPTFGQGTKVEIERTVAAPSVFIFPPSDEQLKSGTASVVCLLNNFYPREAKVQWKVDNALQSGNSQESVTEQDSKDSTYSLSSTLTLSKADYEKHKVYACEVTHQGLSSPVTKSFNRGEC | 99.6 % (GpH7-B3/GpL16-k0 = 100)
15 | GpH7-B3 variant G237_18N/GpL16-k0 (antibody, human IgG1, kappa, also called Ho Ab G237_18N) heavy: not shown light: DIVMTQSPLSLPVTPGEPASISCQASESLVHSNRNTYLHWYLQKPGQSPQLLIYKVSNRFSGVPDRFSGSGSGTDFTLKISRVEAEDVGVYYCSQNTHVPPTFGQGTKVEIERTVAAPSVFIFPPSDEQLKSGTASVVCLLNNFYPREAKVQWKVDNALQSGNSQESVTEQDSKDSTYSLSSTLTLSKADYEKHKVYACEVTHQGLSSPVTKSFNRGEC | 73.6 % (GpH7-B3/GpL16-k0 = 100)
16 | GpH7-B3 variant I332_06M/GpL16-k0 (antibody, human IgG1, kappa, also called Ho Ab I332_06M) heavy: not shown light: DIVMTQSPLSLPVTPGEPASISCQASESLVHSNRNTYLHWYLQKPGQSPQLLIYKVSNRFSGVPDRFSGSGSGTDFTLKISRVEAEDVGVYYCSQNTHVPPTFGQGTKVEIERTVAAPSVFIFPPSDEQLKSGTASVVCLLNNFYPREAKVQWKVDNALQSGNSQESVTEQDSKDSTYSLSSTLTLSKADYEKHKVYACEVTHQGLSSPVTKSFNRGEC | 105 % (GpH7-B3/GpL16-k0 = 100)
17 | GpH7-B3 variant H268_15Y/GpL16-k0 (antibody, human IgG1, kappa, also called Ho Ab H268_15Y) heavy: not shown light: DIVMTQSPLSLPVTPGEPASISCQASESLVHSNRNTYLHWYLQKPGQSPQLLIYKVSNRFSGVPDRFSGSGSGTDFTLKISRVEAEDVGVYYCSQNTHVPPTFGQGTKVEIERTVAAPSVFIFPPSDEQLKSGTASVVCLLNNFYPREAKVQWKVDNALQSGNSQESVTEQDSKDSTYSLSSTLTLSKADYEKHKVYACEVTHQGLSSPVTKSFNRGEC | 106 % (GpH7-B3/GpL16-k0 = 100)
18 | GpH7-B3 variant G237_04F/GpL16-k0 (antibody, human IgG1, kappa, also called Ho Ab G237_04F) heavy: not shown light: DIVMTQSPLSLPVTPGEPASISCQASESLVHSNRNTYLHWYLQKPGQSPQLLIYKVSNRFSGVPDRFSGSGSGTDFTLKISRVEAEDVGVYYCSQNTHVPPTFGQGTKVEIERTVAAPSVFIFPPSDEQLKSGTASVVCLLNNFYPREAKVQWKVDNALQSGNSQESVTEQDSKDSTYSLSSTLTLSKADYEKHKVYACEVTHQGLSSPVTKSFNRGEC | 113 % (GpH7-B3/GpL16-k0 = 100)
19 | GpH7-B3 variant H268_01G/GpL16-k0 (antibody, human IgG1, kappa, also called Ho Ab H268_01G) heavy: not shown light: DIVMTQSPLSLPVTPGEPASISCQASESLVHSNRNTYLHWYLQKPGQSPQLLIYKVSNRFSGVPDRFSGSGSGTDFTLKISRVEAEDVGVYYCSQNTHVPPTFGQGTKVEIERTVAAPSVFIFPPSDEQLKSGTASVVCLLNNFYPREAKVQWKVDNALQSGNSQESVTEQDSKDSTYSLSSTLTLSKADYEKHKVYACEVTHQGLSSPVTKSFNRGEC | 122 % (GpH7-B3/GpL16-k0 = 100)
20 | GpH7-B3 variant G237_02A/GpL16-k0 (antibody, human IgG1, kappa, also called Ho Ab G237_02A) heavy: not shown light: DIVMTQSPLSLPVTPGEPASISCQASESLVHSNRNTYLHWYLQKPGQSPQLLIYKVSNRFSGVPDRFSGSGSGTDFTLKISRVEAEDVGVYYCSQNTHVPPTFGQGTKVEIERTVAAPSVFIFPPSDEQLKSGTASVVCLLNNFYPREAKVQWKVDNALQSGNSQESVTEQDSKDSTYSLSSTLTLSKADYEKHKVYACEVTHQGLSSPVTKSFNRGEC | 84 % (GpH7-B3/GpL16-k0 = 100)
